2 substances from article PMC4755545 can be followed below.

For this assay, the target named is TAP-tagged Lid1 (Apc4), subunit of the APC/C (S. pombe) (UniProt O42839). Description: co-IP; Apc4-TAP pulled down with IgG Dynabeads from extracts of cdc25-22 cells released from G2 into mitosis at 25°C, carbendazim added after 20 min, time points every 15 min; blots for Mad3p (anti-GFP) and Mad2p; lysis buffer 50 mM HEPES pH 7.5, 75 mM KCl, 0.1% TritonX-100; strains wild type, mad3-KEN1, mad3-KEN2, mad3-C9A, mad2-S92A, mad3-C9A mad2-S92A.
UniProt O42839, sequence (O42839 whole entry): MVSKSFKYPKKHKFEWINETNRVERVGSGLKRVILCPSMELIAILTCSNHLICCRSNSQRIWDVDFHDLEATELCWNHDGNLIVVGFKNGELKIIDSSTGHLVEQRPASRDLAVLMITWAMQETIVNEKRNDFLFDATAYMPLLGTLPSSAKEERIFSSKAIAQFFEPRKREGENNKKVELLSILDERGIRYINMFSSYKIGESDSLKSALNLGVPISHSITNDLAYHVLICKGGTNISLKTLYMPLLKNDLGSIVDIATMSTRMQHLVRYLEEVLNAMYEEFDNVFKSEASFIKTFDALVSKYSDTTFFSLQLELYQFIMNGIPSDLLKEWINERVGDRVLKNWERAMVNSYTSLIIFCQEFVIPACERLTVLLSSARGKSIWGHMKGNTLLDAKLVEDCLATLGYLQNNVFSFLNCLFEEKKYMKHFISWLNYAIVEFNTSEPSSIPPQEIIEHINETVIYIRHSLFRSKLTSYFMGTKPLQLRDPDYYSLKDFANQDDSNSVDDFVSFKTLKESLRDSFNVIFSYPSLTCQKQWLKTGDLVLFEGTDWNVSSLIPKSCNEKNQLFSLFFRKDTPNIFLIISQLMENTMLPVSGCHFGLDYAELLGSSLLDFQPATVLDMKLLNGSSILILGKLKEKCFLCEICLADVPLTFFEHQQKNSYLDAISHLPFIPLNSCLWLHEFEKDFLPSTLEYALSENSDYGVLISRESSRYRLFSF

Consider “Mad3-KEN2 mutant tagged with GFP (from UniProt O59767 1-310) (natural protein)”, for which the MCC-APC/C level as percent of wild type, 60 min was 65%. As to “Mad3-C9A tagged with GFP (from UniProt O59767 1-310) (natural protein)”, the level bound to the APC/C as percent of wild type (mad3-C9A mad2-S92A strain, 45 and 60 min) was 20%.
